One assay relates to WT MEF EVs. As to the kind of experiment: Quantitative LC-MS/MS proteomics of EVs from ISRIB-treated WT MEF cultures. In kind it is cell-based, mouse. As to conditions: EV protein abundance, ISRIB-treated WT vs WT.
A further assay has as its system DYT-TOR1A MEF EVs. As to the kind of experiment: Quantitative LC-MS/MS proteomics of EVs from drug-treated DYT-TOR1A MEF cultures (ritonavir, salubrinal). The assay is classed as cell-based, mouse. Also noted: key to RTV Corrective Direction / RTV Corrective Direction, Grwd1 / RTV Corrective Direction, Srrm2 / RTV Corrective Direction, Rbm17 / RTV Corrective Direction, Dcaf8 / RTV Corrective Direction, Edil3 / RTV Corrective Direction, Timp3 / RTV Corrective Direction, Heatr3 / RTV Corrective Direction, Brd4 / RTV Corrective Direction, P3h4 / RTV Corrective Direction, Pacsin3 / RTV Corrective Direction, Naa50 / RTV Corrective Direction, Lpar6 / RTV Corrective Direction, Ndrg1 / RTV Corrective Direction, Kntc1 / RTV Corrective Direction, Cdk11b / RTV Corrective Direction, Sumo1 / RTV Corrective Direction, Lsm4 / RTV Corrective Direction, Hmga2 / RTV Corrective Direction, Cstf1 / RTV Corrective Direction, Tes / RTV Corrective Direction, Sbno1 / RTV Corrective Direction, Unc119b / RTV Corrective Direction, Cfdp1 / RTV Corrective Direction, Sec61b: YES = protein abundance effect opposite to DYT/WT. As to conditions: EV protein abundance; for RTV Corrective Direction: DYT + RTV (ritonavir) vs DYT, direction compared with DYT/WT; for DYT + RTV/DYT Cohen's d: ritonavir (RTV)-treated DYT vs DYT.

B1: Nap1l4 (protein, UniProt Q78ZA7 2-375, looked up)
Nucleosome assembly protein …: AENSLSDGGPADSVEAAKNASNTEKLTDQVMQNPQVLAALQERLDNVSHTPSSYIETLPKAVKRRINALKQLQVRCAHIEAKFYEEVHDLERKYAALYQPLFDKRREFITGDVEPTDAESAWHSENEEEDKLAGDMKNKVVIAEKEAATVEELNPKGIPEFWFTIFRNVDMLSELVQEYDEPILKHLQDIKVKFSDPGQPMSFVLEFHFEPNDYFTNPVLTKTYKMKSEPDKADPFSFEGPEIVDCDGCTIDWKKGKNVTVKTIKKKQKHKGRGTVRTITKQVPNESFFNFFSPLKASGDGESLDEDSEFTLASDFEIGHFFRERIVPRAVLYFTGEAIEDDDNFEEGEEGEEEELEGDEEGEDEDDADVNPKV
Consider B1, for which, in the assay on WT MEF EVs, the “WT + ISRIB/WT Cohen's d” value is listed as 2.43. In addition, in the assay with DYT-TOR1A MEF EVs, the “RTV Corrective Direction” value is on record as “YES” and the “DYT + RTV/DYT Cohen's d” value is 5.74.

B2: Vapa (protein, UniProt Q9WV55 2-249, looked up)
Vesicle-associated membrane …: ASASGAMAKHEQILVLDPPSDLKFKGPFTDVVTTNLKLQNPSDRKVCFKVKTTAPRRYCVRPNSGIIDPGSIVTVSVMLQPFDYDPNEKSKHKFMVQTIFAPPNISDMEAVWKEAKPDELMDSKLRCVFEMPNENDKLNDMEPSKAVPLNASKQDGPLPKPHSVSLNDTETRKLMEECKRLQGEMMKLSEENRHLRDEGLRLRKVAHSDKPGSTSAVSFRDNVTSPLPSLLVVIAAIFIGFFLGKFIL
For the molecule B2, the “WT + ISRIB/WT Cohen's d” value in the assay with WT MEF EVs is given as 3.18. Also, in the assay on DYT-TOR1A MEF EVs, the “RTV Corrective Direction” value is listed as “YES” and the “DYT + RTV/DYT Cohen's d” value is on record as 1.91.

B3: Cxadr (protein, UniProt P97792 20-365, looked up)
Coxsackievirus and adenovirus …: LSITTPEQRIEKAKGETAYLPCKFTLSPEDQGPLDIEWLISPSDNQIVDQVIILYSGDKIYDNYYPDLKGRVHFTSNDVKSGDASINVTNLQLSDIGTYQCKVKKAPGVANKKFLLTVLVKPSGTRCFVDGSEEIGNDFKLKCEPKEGSLPLQFEWQKLSDSQTMPTPWLAEMTSPVISVKNASSEYSGTYSCTVQNRVGSDQCMLRLDVVPPSNRAGTIAGAVIGTLLALVLIGAILFCCHRKRREEKYEKEVHHDIREDVPPPKSRTSTARSYIGSNHSSLGSMSPSNMEGYSKTQYNQVPSEDFERAPQSPTLAPAKVAAPNLSRMGAVPVMIPAQSKDGSIV
With B3, the “WT + ISRIB/WT Cohen's d” value in the assay on WT MEF EVs amounted to 1.72. Further, in the assay with DYT-TOR1A MEF EVs, the “RTV Corrective Direction” value is listed as “YES” and the “DYT + RTV/DYT Cohen's d” value came out at 3.88.

B4: Impa1 (protein, UniProt O55023 1-277, looked up)
Inositol monophosphatase 1: MADPWQECMDYAVILARQAGEMIREALKNEMDVMIKSSPADLVTVTDQKVEKMLMSSIKEKYPCHSFIGEESVAAGEKTVFTESPTWFIDPIDGTTNFVHRFPFVAVSIGFLVNKEMEFGIVYSCVEDKMYTGRKGKGAFCNGQKLQVSQQEDITKSLLVTELGSSRKPETLRIVLSNMEKLCSIPIHGIRSVGTAAVNMCLVATGGADAYYEMGIHCWDMAGAGIIVTEAGGVLMDVTGGPFDLMSRRIIAANSITLAKRIAKEIEIIPLQRDDES
B4: in the assay on WT MEF EVs, the “WT + ISRIB/WT Cohen's d” value is recorded as 1.73. In addition, in the assay on DYT-TOR1A MEF EVs, the “RTV Corrective Direction” value is on record as “YES” and the “DYT + RTV/DYT Cohen's d” value was found to be 10.89.

B5: Fus (protein, UniProt P56959 1-518, looked up)
RNA-binding protein FUS: MASNDYTQQATQSYGAYPTQPGQGYSQQSSQPYGQQSYSGYGQSADTSGYGQSSYGSSYGQTQNTGYGTQSAPQGYGSTGGYGSSQSSQSSYGQQSSYPGYGQQPAPSSTSGSYGGSSQSSSYGQPQSGGYGQQSGYGGQQQSYGQQQSSYNPPQGYGQQNQYNSSSGGGGGGGGGNYGQDQSSMSGGGGGGGYGNQDQSGGGGGGYGGGQQDRGGRGRGGGGGYNRSSGGYEPRGRGGGRGGRGGMGGSDRGGFNKFGGPRDQGSRHDSEQDNSDNNTIFVQGLGENVTIESVADYFKQIGIIKTNKKTGQPMINLYTDRETGKLKGEATVSFDDPPSAKAAIDWFDGKEFSGNPIKVSFATRRADFNRGGGNGRGGRGRGGPMGRGGYGGGGSGGGGRGGFPSGGGGGGGQQRAGDWKCPNPTCENMNFSWRNECNQCKAPKPDGPGGGPGGSHMGGNYGDDRRGRGGYDRGGYRGRGGDRGGFRGGRGGGDRGGFGPGKMDSRGEHRQDRRERPY
On to B5, for which the “WT + ISRIB/WT Cohen's d” value with WT MEF EVs stood at 0.85. Moreover, in the assay on DYT-TOR1A MEF EVs, the “RTV Corrective Direction” value is “YES” and the “DYT + RTV/DYT Cohen's d” value was found to be 11.94.

B6: Uso1 (protein, UniProt Q9Z1Z0 1-959, looked up)
General vesicular transport …: MNFLRGVMGGQSAGPQHTEAETIQKLCDRVASSTLLDDRRNAVRALKSLSKKYRLEVGIQAMEHLIHVLQTDRSDSEIIAYALDTLYNIISNDEEEELEENSTRQSEDLGSQFTEIFIKQPENVTLLLSLLEEFDFHVRWPGVRLLTSLLKQLGPPVQQIILVSPMGVSRLMDLLADSREIIRNDGVLLLQALTRSNGAIQKIVAFENAFERLLDIITEEGNSDGGIVVEDCLILLQNLLKTNNSNQNFFKEGSYIQRMKPWFEVGEENSGWSAQKVTNLHLMLQLVRVLVSPTNPPGATSSCQKAMFQCGLLQQLCTILMATGIPADILTETINTVSEVIRGCQVNQDYFASVNAPSNPPRPAIVVLLMSMVNERQPFVLRCAVLYCFQCFLYKNEKGQGEIVATLLPSTIDATGNSVSAGQLLCGGLFSTDSLSNWCAAVALAHALQGNATQKEQLLRVQLATSIGNPPVSLLQQCTNILSQGSKIQTRVGLLMLLCTWLSNCPIAVTHFLHNSANVPFLTGQIAENLGEEEQLVQGLCALLLGISIYFNDNSLENYTKEKLKQLIEKRIGKENFIEKLGFISKHELYSRASQKPQPNFPSPEYMIFDHEFTKLVKELEGVITKAIYKSSEEDKKEEEVKKTLEQHDNIVTHYKNMIREQDLQLEELKQQVSTLKCQNEQLQTAVTQQASQIQQHKDQYNLLKVQLGKDNHHQGSHGDGAQVNGIQPEEISRLREEIEELKSQQALLQGQLAEKDSLIENLKSSQASGMSEQASATCPPRDPEQVAELKQELTALKSQLCSQSLEITRLQTENCELLQRAETLAKSVPVEGESEHVSAAKTTDVEGRLSALLQETKELKNEIKALSEERTAIQKQLDSSNSTIAILQTEKDKLDLEVTDSKKEQDDLLVLLADQDQKILSLKSKLKDLGHPVEEEDESGDQEDDDDEIDDGDKDQDI
On to B6, for which the “WT + ISRIB/WT Cohen's d” value in the assay with WT MEF EVs came out at 2.44. For the same molecule, in the assay with DYT-TOR1A MEF EVs, the “RTV Corrective Direction” value is “YES” and the “DYT + RTV/DYT Cohen's d” value was found to be 9.12.

B7: Ube2n (protein, UniProt P61089 1-152, looked up)
Ubiquitin-conjugating enzyme …: MAGLPRRIIKETQRLLAEPVPGIKAEPDESNARYFHVVIAGPQDSPFEGGTFKLELFLPEEYPMAAPKVRFMTKIYHPNVDKLGRICLDILKDKWSPALQIRTVLLSIQALLSAPNPDDPLANDVAEQWKTNEAQAIETARAWTRLYAMNNI
On to B7, for which the “WT + ISRIB/WT Cohen's d” value in the assay with WT MEF EVs worked out at 0.41. Moreover, in the assay on DYT-TOR1A MEF EVs, the “RTV Corrective Direction” value is listed as “YES” and the “DYT + RTV/DYT Cohen's d” value is given as 6.02.

B8: Mdk (protein, UniProt P12025 23-140, looked up)
Midkine: KKKEKVKKGSECSEWTWGPCTPSSKDCGMGFREGTCGAQTQRVHCKVPCNWKKEFGADCKYKFESWGACDGSTGTKARQGTLKKARYNAQCQETIRVTKPCTSKTKSKTKAKKGKGKD
Take B8: the “WT + ISRIB/WT Cohen's d” value with WT MEF EVs came to 1.33. Also, in the assay on DYT-TOR1A MEF EVs, the “RTV Corrective Direction” value was “YES” and the “DYT + RTV/DYT Cohen's d” value amounted to 3.64.

B9: Gsto1 (protein, UniProt O09131 2-240, looked up)
Glutathione S-transferase …: SGESSRSLGKGSAPPGPVPEGQIRVYSMRFCPFAQRTLMVLKAKGIRHEVININLKNKPEWFFEKNPLGLVPVLENSQGHLVTESVITCEYLDEAYPEKKLFPDDPYKKARQKMTLESFSKVPPLIASFVRSKRKEDSPNLREALENEFKKLEEGMDNYKSFLGGDSPSMVDYLTWPWFQRLEALELKECLAHTPKLKLWMAAMQQDPVASSHKIDAKTYREYLNLYLQDSPEACDYGL
As for B9, in the assay with WT MEF EVs, the “WT + ISRIB/WT Cohen's d” value is listed as 0.04. For the same molecule, in the assay with DYT-TOR1A MEF EVs, the “RTV Corrective Direction” value is on record as “YES” and the “DYT + RTV/DYT Cohen's d” value amounted to 3.45.

B10: Cnn3 (protein, UniProt Q9DAW9 1-330, looked up)
Calponin-3: MTHFNKGPSYGLSAEVKNKIASKYDQQAEEDLRNWIEEVTGLGIGTNFQLGLKDGIILCELINKLQPGSVKKVNESSLNWPQLENIGNFIKAIQAYGMKPHDIFEANDLFENGNMTQVQTTLVALAGLAKTKGFHTTIDIGVKYAEKQTRRFDEGKLKAGQSVIGLQMGTNKCASQAGMTAYGTRRHLYDPKMQTDKPFDQTTISLQMGTNKGASQAGMLAPGTRRDIYDQKLTLQPVDNSTISLQMGTNKVASQKGMSVYGLGRQVYDPKYCAAPTEPVIHNGSQGTGTNGSEISDSDYQAEYPDEYHGEYPDDYPREYQYGDDQGIDY
As to B10, the “WT + ISRIB/WT Cohen's d” value in the assay with WT MEF EVs stood at 2.76. Moreover, in the assay with DYT-TOR1A MEF EVs, the “RTV Corrective Direction” value is “YES” and the “DYT + RTV/DYT Cohen's d” value amounted to 4.78.

B11: Hnrnph1 (protein, UniProt O35737 1-449, looked up)
Heterogeneous nuclear …: MMLGAEGGEGFVVKVRGLPWSCSADEVQRFFSDCKIQNGAQGIRFIYTREGRPSGEAFVELESEDEVKLALKKDRETMGHRYVEVFKSNNVEMDWVLKHTGPNSPDTANDGFVRLRGLPFGCSKEEIVQFFSGLEIVPNGITLPVDFQGRSTGEAFVQFASQEIAEKALKKHKERIGHRYIEIFKSSRAEVRTHYDPPRKLMAMQRPGPYDRPGAGRGYNSIGRGAGFERMRRGAYGGGYGGYDDYNGYNDGYGFGSDRFGRDLNYCFSGMSDHRYGDGGSTFQSTTGHCVHMRGLPYRATENDIYNFFSPLNPVRVHIEIGPDGRVTGEADVEFATHEDAVAAMSKDKANMQHRYVELFLNSTAGASGGAYEHRYVELFLNSTAGASGGAYGSQMMGGMGLSNQSSYGGPASQQLSGGYGGGYGGQSSMSGYDQVLQENSSDFQSNIA
B11: the “WT + ISRIB/WT Cohen's d” value in the assay with WT MEF EVs is recorded as 2.47. Besides, in the assay with DYT-TOR1A MEF EVs, the “RTV Corrective Direction” value is “YES” and the “DYT + RTV/DYT Cohen's d” value is on record as 4.23.

These data come from patent US20260266848A1, “COMPOSITIONS AND METHODS FOR DIAGNOSING AND TREATING DYSTONIA” (Duke University, priority 2023, published 2026).
